Assay results as given in publication PMC7279388.

Target: p65 (UniProt Q04206)
Experiment: anti-FLAG co-IP, anti-p65 blot
Conditions: reference: Flag-WT, IL-1β treated; sites S15

- binding against the reference: weaker
Substance: PRMT5 (from UniProt O14744) Flag-S15A, IL-1β treated
